The source of these data is IntAct's records for PubMed 22939626.

This assay addresses vira_shifl virA (UniProt Q7BU69).

Chain of vira_shifl virA (Q7BU69 whole entry): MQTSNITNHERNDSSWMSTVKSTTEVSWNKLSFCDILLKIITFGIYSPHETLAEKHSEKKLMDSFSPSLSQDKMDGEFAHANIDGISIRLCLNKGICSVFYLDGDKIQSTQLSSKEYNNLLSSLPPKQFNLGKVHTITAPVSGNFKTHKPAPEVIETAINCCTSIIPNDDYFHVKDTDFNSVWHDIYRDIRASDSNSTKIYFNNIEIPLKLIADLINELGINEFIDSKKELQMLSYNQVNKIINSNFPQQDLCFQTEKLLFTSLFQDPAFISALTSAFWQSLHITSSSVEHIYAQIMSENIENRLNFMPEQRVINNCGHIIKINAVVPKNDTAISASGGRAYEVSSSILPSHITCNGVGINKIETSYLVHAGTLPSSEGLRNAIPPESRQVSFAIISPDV
Chain of Ras-related protein Rab-1A (Homo sapiens), P62820 S25N (P62820 whole entry S25N): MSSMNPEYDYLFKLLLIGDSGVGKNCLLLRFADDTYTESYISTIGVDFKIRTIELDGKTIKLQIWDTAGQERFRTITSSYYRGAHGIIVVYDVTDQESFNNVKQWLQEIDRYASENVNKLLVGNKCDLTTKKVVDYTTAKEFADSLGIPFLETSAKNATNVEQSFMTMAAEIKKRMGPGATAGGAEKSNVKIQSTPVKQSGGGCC
Chain of Ras-related protein Rab-1A (Homo sapiens), P62820 Q70L (P62820 whole entry Q70L): as the sequence (P62820 whole entry S25N) above, with N25S, Q70L counted along it

As for “Ras-related protein Rab-1A (Homo sapiens), P62820 S25N”, the “effect of a mutation on the interaction” value is given as “decreasing interaction strength”. As for “Ras-related protein Rab-1A (Homo sapiens), P62820 Q70L”, the entry is “increasing interaction strength”.
